One molecule from PMC6077130 (Heliyon, 2018) can be followed below.

The assay concerns the target T1, N-terminus of Glis3 (aa 1-653) fused to the Gal4 DBD (mouse, UniProt F6SGN4 1-653).
T1 sequence (looked up): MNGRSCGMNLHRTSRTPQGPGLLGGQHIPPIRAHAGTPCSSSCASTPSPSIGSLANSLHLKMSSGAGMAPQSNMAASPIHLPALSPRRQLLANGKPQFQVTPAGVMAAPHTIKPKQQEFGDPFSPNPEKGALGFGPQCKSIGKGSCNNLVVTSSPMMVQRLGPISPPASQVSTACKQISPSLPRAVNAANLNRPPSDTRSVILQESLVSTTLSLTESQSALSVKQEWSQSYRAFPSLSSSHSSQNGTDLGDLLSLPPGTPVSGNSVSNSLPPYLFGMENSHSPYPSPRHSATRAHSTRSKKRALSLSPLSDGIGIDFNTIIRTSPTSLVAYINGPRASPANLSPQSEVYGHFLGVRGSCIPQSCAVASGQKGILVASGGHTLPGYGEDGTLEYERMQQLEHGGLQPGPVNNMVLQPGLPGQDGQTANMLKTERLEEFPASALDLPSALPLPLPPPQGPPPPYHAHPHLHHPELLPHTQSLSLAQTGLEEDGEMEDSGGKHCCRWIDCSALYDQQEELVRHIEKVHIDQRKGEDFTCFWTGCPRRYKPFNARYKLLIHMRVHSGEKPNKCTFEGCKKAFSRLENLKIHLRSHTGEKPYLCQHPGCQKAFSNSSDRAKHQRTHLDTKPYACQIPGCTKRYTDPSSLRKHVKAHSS
The experiment in a line: two-hybrid.

B1: full length PIASy fused to the Gal4 AD (VP16-PIASy) (natural protein, UniProt Q9JM05 1-507, looked up)
chain: MAAELVEAKNMVMSFRVSDLQMLLGFVGRSKSGLKHELVTRALQLVQFDCSPELFKKIKELYETRYAKKSAEPGPQAPRPLDPLALHSMPRTPLSGPTVDYPVLYGKYLNGLGRLPTKTLKPEVRLVKLPFFNMLDELLKPTELVPQSAEKLQESPCIFALTPRQVEMIRNSRELQPGVKAVQVVLRICYSDTSCPQEDQYPPNIAVKVNHSYCSVPGYYPSNKPGVEPKRPCRPINLTHLMYLSSATNRITVTWGNYGKSYSVALYLVRQLTSSDLLQRLKTIGVKHPELCKALVKEKLRLDPDSEIATTGVRVSLICPLVKMRLSVPCRAETCAHLQCFDAVFYLQMNEKKPTWMCPVCDKPAAYDQLIIDGLLSKILSECEGADEIEFLAEGSWRPIRAEKEPSCSPQGPILVLGTSDANGLAPASSTPGIGSGLSGPGSAGSGAGAAGSLENGKTGADVVDLTLDSSSSSEDEDEDEDDDEDEDEGPRPKRRCPFQKGLVPAC
As to B1, the “fold increase in luciferase expression (two-hybrid, chimeras co-expressed)” value came out at 1.5 fold.
